For the experiment, the target named is LecB-biotin (Pseudomonas aeruginosa lectin LecB, biotinylated) (Pseudomonas aeruginosa) (UniProt Q9HYN5). The experiment can be described thus: pull-down.

Drawing on publication doi:10.1101/2019.12.12.872739, this text covers percent of total β1-integrin extracted by LecB-biotin for 1 substance.

As to “β1-integrin (glycosylated, endogenous in MDCK cells) (receptor)”, the percent of total β1-integrin extracted by LecB-biotin was found to be 75%.
